Reference: patent publication US20240124865

Target: T1, FRETS-VWF73 substrate (VWF fragment comprising VWFA2 domain residues 1596 to 1668)
T1 chain: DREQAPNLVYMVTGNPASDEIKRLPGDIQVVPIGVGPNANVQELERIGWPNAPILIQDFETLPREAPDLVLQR

Protein	proteolytic activity, FRETS-VWF73 assay	proteolytic activity, FRETS-VWF73 assay, fold increase
ADAMTS13 A1144I variant (Exemplified A1144I variant) (protein) AAGGILHLELLVAVGPDVFQAHQEDTERYVLTNLNIGAELLRDPSLGAQFRVHLVKMVILTEPEGAPNITANLTSSLLSVCGWSQTINPEDDTDPGHADLVLYITRFDLELPDGNRQVRGVTQLGGACSPTWSCLITEDTGFDLGVTIAHEIGHSFGLEHDGAPGSGCGPSGHVMASDGAAPRAGLAWSPCSRRQLLSLLSAGRARCVWDPPRPQPGSAGHPPDAQPGLYYSANEQCRVAFGPKAVACTFAREHLDMCQALSCHTDPLDQSSCSRLLVPLLDGTECGVEKWCSKGRCRSLVELTPIAAVHGRWSSWGPRSPCSRSCGGGVVTRRRQCNNPRPAFGGRACVGADLQAEMCNTQACEKTQLEFMSQQCARTDGQPLRSSPGGASFYHWGAAVPHSQGDALCRHMCRAIGESFIMKRGDSFLDGTRCMPSGPREDGTLSLCVSGSCRTFGCDGRMDSQQVWDRCQVCGGDNSTCSPRKGSFTAGRAREYVTFLTVTPNLTSVYIANHRPLFTHLAVRIGGRYVVAGKMSISPNTTYPSLLEDGRVEYRVALTEDRLPRLEEIRIWGPLQEDADIQVYRRYGEEYGNLTRPDITFTYFQPKPRQAWVWAAVRGPCSVSCGAGLRWVNYSCLDQARKELVETVQCQGSQQPPAWPEACVLEPCPPYWAVGDFGPCSASCGGGLRERPVRCVEAQGSLLKTLPPARCRAGAQQPAVALETCNPQPCPARWEVSEPSSCTSAGGAGLALENETCVPGADGLEAPVTEGPGSVDEKLPAPEPCVGMSCPPGWGHLDATSAGEKAPSPWGSIRTGAQAAHVWTPAAGSCSVSCGRGLMELRFLCMDSALRVPVQEELCGLASKPGSRREVCQAVPCPARWQYKLAACSVSCGRGVVRRILYCARAHGEDDGEEILLDTQCQGLPRPEPQEACSLEPCPPRWKVMSLGPCSASCGLGTARRSVACVQLDQGQDVEVDEAACAALVRPEASVPCLIADCTYRWHVGTWMECSVSCGDGIQRRRDTCLGPQAQAPVPADFCQHLPKPVTVRGCWAGPCVGQGTPSLVPHEEIAAPGRTTATPAGASLEWSQARGLLFSPAPQPRRLLPGPQENSVQSSACGRQHLEPTGTIDMRGPGQADCAVAIGRPLGEVVTLRVLESSLNCSAGDMLLLWGRLTWRKMCRKLLDMTFSSKTNTLVVRQRCGRPGGGVLLRYGSQLAPETFYRECDMQLFGPWGEIVSPSLSPATSNAGGCRLFINVAPHARIAIHALATNMGAGTEGANASYILIRDTHSLRTTAFHGQQVLYWESESSQAEMEFSEGFLKAQASLRGQYWTLQSWVPEMQDPQSWKGKEGTSRGPFEQKLISEEDLNMHTGHHHHHH	induces a similar constitutive activity to that seen with the A1144V, A1146V variants	–
ADAMTS13 A1146I variant (Exemplified A1146I variant) (protein) AAGGILHLELLVAVGPDVFQAHQEDTERYVLTNLNIGAELLRDPSLGAQFRVHLVKMVILTEPEGAPNITANLTSSLLSVCGWSQTINPEDDTDPGHADLVLYITRFDLELPDGNRQVRGVTQLGGACSPTWSCLITEDTGFDLGVTIAHEIGHSFGLEHDGAPGSGCGPSGHVMASDGAAPRAGLAWSPCSRRQLLSLLSAGRARCVWDPPRPQPGSAGHPPDAQPGLYYSANEQCRVAFGPKAVACTFAREHLDMCQALSCHTDPLDQSSCSRLLVPLLDGTECGVEKWCSKGRCRSLVELTPIAAVHGRWSSWGPRSPCSRSCGGGVVTRRRQCNNPRPAFGGRACVGADLQAEMCNTQACEKTQLEFMSQQCARTDGQPLRSSPGGASFYHWGAAVPHSQGDALCRHMCRAIGESFIMKRGDSFLDGTRCMPSGPREDGTLSLCVSGSCRTFGCDGRMDSQQVWDRCQVCGGDNSTCSPRKGSFTAGRAREYVTFLTVTPNLTSVYIANHRPLFTHLAVRIGGRYVVAGKMSISPNTTYPSLLEDGRVEYRVALTEDRLPRLEEIRIWGPLQEDADIQVYRRYGEEYGNLTRPDITFTYFQPKPRQAWVWAAVRGPCSVSCGAGLRWVNYSCLDQARKELVETVQCQGSQQPPAWPEACVLEPCPPYWAVGDFGPCSASCGGGLRERPVRCVEAQGSLLKTLPPARCRAGAQQPAVALETCNPQPCPARWEVSEPSSCTSAGGAGLALENETCVPGADGLEAPVTEGPGSVDEKLPAPEPCVGMSCPPGWGHLDATSAGEKAPSPWGSIRTGAQAAHVWTPAAGSCSVSCGRGLMELRFLCMDSALRVPVQEELCGLASKPGSRREVCQAVPCPARWQYKLAACSVSCGRGVVRRILYCARAHGEDDGEEILLDTQCQGLPRPEPQEACSLEPCPPRWKVMSLGPCSASCGLGTARRSVACVQLDQGQDVEVDEAACAALVRPEASVPCLIADCTYRWHVGTWMECSVSCGDGIQRRRDTCLGPQAQAPVPADFCQHLPKPVTVRGCWAGPCVGQGTPSLVPHEEAAIPGRTTATPAGASLEWSQARGLLFSPAPQPRRLLPGPQENSVQSSACGRQHLEPTGTIDMRGPGQADCAVAIGRPLGEVVTLRVLESSLNCSAGDMLLLWGRLTWRKMCRKLLDMTFSSKTNTLVVRQRCGRPGGGVLLRYGSQLAPETFYRECDMQLFGPWGEIVSPSLSPATSNAGGCRLFINVAPHARIAIHALATNMGAGTEGANASYILIRDTHSLRTTAFHGQQVLYWESESSQAEMEFSEGFLKAQASLRGQYWTLQSWVPEMQDPQSWKGKEGTSRGPFEQKLISEEDLNMHTGHHHHHH	induces a similar constitutive activity to that seen with the A1144V, A1146V variants	–
ADAMTS13 P1180K variant (Exemplified P1180K variant) (protein) AAGGILHLELLVAVGPDVFQAHQEDTERYVLTNLNIGAELLRDPSLGAQFRVHLVKMVILTEPEGAPNITANLTSSLLSVCGWSQTINPEDDTDPGHADLVLYITRFDLELPDGNRQVRGVTQLGGACSPTWSCLITEDTGFDLGVTIAHEIGHSFGLEHDGAPGSGCGPSGHVMASDGAAPRAGLAWSPCSRRQLLSLLSAGRARCVWDPPRPQPGSAGHPPDAQPGLYYSANEQCRVAFGPKAVACTFAREHLDMCQALSCHTDPLDQSSCSRLLVPLLDGTECGVEKWCSKGRCRSLVELTPIAAVHGRWSSWGPRSPCSRSCGGGVVTRRRQCNNPRPAFGGRACVGADLQAEMCNTQACEKTQLEFMSQQCARTDGQPLRSSPGGASFYHWGAAVPHSQGDALCRHMCRAIGESFIMKRGDSFLDGTRCMPSGPREDGTLSLCVSGSCRTFGCDGRMDSQQVWDRCQVCGGDNSTCSPRKGSFTAGRAREYVTFLTVTPNLTSVYIANHRPLFTHLAVRIGGRYVVAGKMSISPNTTYPSLLEDGRVEYRVALTEDRLPRLEEIRIWGPLQEDADIQVYRRYGEEYGNLTRPDITFTYFQPKPRQAWVWAAVRGPCSVSCGAGLRWVNYSCLDQARKELVETVQCQGSQQPPAWPEACVLEPCPPYWAVGDFGPCSASCGGGLRERPVRCVEAQGSLLKTLPPARCRAGAQQPAVALETCNPQPCPARWEVSEPSSCTSAGGAGLALENETCVPGADGLEAPVTEGPGSVDEKLPAPEPCVGMSCPPGWGHLDATSAGEKAPSPWGSIRTGAQAAHVWTPAAGSCSVSCGRGLMELRFLCMDSALRVPVQEELCGLASKPGSRREVCQAVPCPARWQYKLAACSVSCGRGVVRRILYCARAHGEDDGEEILLDTQCQGLPRPEPQEACSLEPCPPRWKVMSLGPCSASCGLGTARRSVACVQLDQGQDVEVDEAACAALVRPEASVPCLIADCTYRWHVGTWMECSVSCGDGIQRRRDTCLGPQAQAPVPADFCQHLPKPVTVRGCWAGPCVGQGTPSLVPHEEAAAPGRTTATPAGASLEWSQARGLLFSPAPQPRRLLKGPQENSVQSSACGRQHLEPTGTIDMRGPGQADCAVAIGRPLGEVVTLRVLESSLNCSAGDMLLLWGRLTWRKMCRKLLDMTFSSKTNTLVVRQRCGRPGGGVLLRYGSQLAPETFYRECDMQLFGPWGEIVSPSLSPATSNAGGCRLFINVAPHARIAIHALATNMGAGTEGANASYILIRDTHSLRTTAFHGQQVLYWESESSQAEMEFSEGFLKAQASLRGQYWTLQSWVPEMQDPQSWKGKEGTSRGPFEQKLISEEDLNMHTGHHHHHH	–	Induces greater than 10-fold increase in activity
ADAMTS13 P1180I variant (Exemplified P1180I variant) (protein) AAGGILHLELLVAVGPDVFQAHQEDTERYVLTNLNIGAELLRDPSLGAQFRVHLVKMVILTEPEGAPNITANLTSSLLSVCGWSQTINPEDDTDPGHADLVLYITRFDLELPDGNRQVRGVTQLGGACSPTWSCLITEDTGFDLGVTIAHEIGHSFGLEHDGAPGSGCGPSGHVMASDGAAPRAGLAWSPCSRRQLLSLLSAGRARCVWDPPRPQPGSAGHPPDAQPGLYYSANEQCRVAFGPKAVACTFAREHLDMCQALSCHTDPLDQSSCSRLLVPLLDGTECGVEKWCSKGRCRSLVELTPIAAVHGRWSSWGPRSPCSRSCGGGVVTRRRQCNNPRPAFGGRACVGADLQAEMCNTQACEKTQLEFMSQQCARTDGQPLRSSPGGASFYHWGAAVPHSQGDALCRHMCRAIGESFIMKRGDSFLDGTRCMPSGPREDGTLSLCVSGSCRTFGCDGRMDSQQVWDRCQVCGGDNSTCSPRKGSFTAGRAREYVTFLTVTPNLTSVYIANHRPLFTHLAVRIGGRYVVAGKMSISPNTTYPSLLEDGRVEYRVALTEDRLPRLEEIRIWGPLQEDADIQVYRRYGEEYGNLTRPDITFTYFQPKPRQAWVWAAVRGPCSVSCGAGLRWVNYSCLDQARKELVETVQCQGSQQPPAWPEACVLEPCPPYWAVGDFGPCSASCGGGLRERPVRCVEAQGSLLKTLPPARCRAGAQQPAVALETCNPQPCPARWEVSEPSSCTSAGGAGLALENETCVPGADGLEAPVTEGPGSVDEKLPAPEPCVGMSCPPGWGHLDATSAGEKAPSPWGSIRTGAQAAHVWTPAAGSCSVSCGRGLMELRFLCMDSALRVPVQEELCGLASKPGSRREVCQAVPCPARWQYKLAACSVSCGRGVVRRILYCARAHGEDDGEEILLDTQCQGLPRPEPQEACSLEPCPPRWKVMSLGPCSASCGLGTARRSVACVQLDQGQDVEVDEAACAALVRPEASVPCLIADCTYRWHVGTWMECSVSCGDGIQRRRDTCLGPQAQAPVPADFCQHLPKPVTVRGCWAGPCVGQGTPSLVPHEEAAAPGRTTATPAGASLEWSQARGLLFSPAPQPRRLLIGPQENSVQSSACGRQHLEPTGTIDMRGPGQADCAVAIGRPLGEVVTLRVLESSLNCSAGDMLLLWGRLTWRKMCRKLLDMTFSSKTNTLVVRQRCGRPGGGVLLRYGSQLAPETFYRECDMQLFGPWGEIVSPSLSPATSNAGGCRLFINVAPHARIAIHALATNMGAGTEGANASYILIRDTHSLRTTAFHGQQVLYWESESSQAEMEFSEGFLKAQASLRGQYWTLQSWVPEMQDPQSWKGKEGTSRGPFEQKLISEEDLNMHTGHHHHHH	–	Induces greater than 10-fold increase in activity
